Measurements from publication PMC2935088.

Molecular target: T1, DesT (selenomethionine) (Pseudomonas aeruginosa, UniProt Q9HUS3 1-209)
T1 sequence: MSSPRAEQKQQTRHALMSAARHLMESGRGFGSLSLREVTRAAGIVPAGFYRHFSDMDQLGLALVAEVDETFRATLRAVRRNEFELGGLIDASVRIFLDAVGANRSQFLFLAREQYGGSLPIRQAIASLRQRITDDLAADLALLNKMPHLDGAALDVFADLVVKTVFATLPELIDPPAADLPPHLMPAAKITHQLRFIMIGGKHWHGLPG
Experiment: X-ray crystallography

B1: desCB promoter 30mer crystallization duplex (dsDNA)
DNA 1: TTACATCAGTGAACGCTTGTTGACTCGATTG
DNA 2: CAATCGAGTCAACAAGCGTTCACTGATGTA
binding result: binds
